The values below come from patent US20200369729A1 (CENTRE NATIONAL DE LA RECHERCHE SCIENTIFIQUE, published 2020).

The series deals with the molecule itself. The series is described as follows: self-association, analytical gel filtration in 20 mM phosphate buffer, 150 mM NaCl, pH 7.4. The method, then: (A) Schematic representation of the four 40-amino acid peptides named MUB₄₀#1, MUB₄₀#2, MUB₄₀#3, MUB₄₀#4, overlapping and covering the MUB₇₀ sequence (Coïc et al., 2012) (from C-terminal to N-terminal, see FIG. 2). (B) Human colonic mucus layer was labelled with the MUB₄₀#1-Cy5 fluorescent conjugate (1 μg/mL, magenta). (C) Colonic goblet cell granules were labelled with MUB₄₀#1-Cy5 (1 μg/mL, magenta), which was not the case for MUB₇₀-Cy5 (Coïc et al., 2012) or MUB₄₀#2-#4 peptides (data not shown). Actin (red); bar, 20 μm. (D) Elution profiles of MUB₄₀ peptides (#1-#4) were obtained by analytical gel filtration (absorbance at 280 nm). Samples were prepared at 10 μg/ml in the elution buffer (20 mM phosphate buffer, 150 mM NaCl, pH7.4). MUB₄₀#1 assembled as a trimer, similarly to MUB₇₀ (Coïc et al., 2012), not MUB₄₀#2, MUB₄₀#3, and MUB₄₀#4. […] (E) Far-UV Circular Dichroism spectra of the four MUB₄₀ peptides at 60 μM in 20 mM sodium phosphate buffer (pH 7.4) in the presence of 50 mM NaCl, showing a specific structural signal of MUB₄₀#1, compared to others peptides. (F) A human colonic explant was infected with Shigella flexneri pGFP (green) and labelled with MUB₄₀#1-Cy5 (1 μg/mL, magenta) and Dapi (blue) after fixation and permeabilization. The colonic mucus layer and infiltrated neutrophils (see (G)), were labelled with MUB₄₀#1-Cy5, as imaged by two-photon microscopy. Bar, 50 μm (G) The labelling of polymorphonuclear neutrophils with MUB₄₀#1-Cy5 (1 μg/mL, magenta) was confirmed on human purified neutrophils, showing a granular staining. Nucleus was stained with Dapi (blue). Bar, 5 μm.
(In general: SEC sorts molecules by how far they enter the pores of the column.)

*: point of attachment. Succinimide(1-Et,3-yl) = CCN1C(=O)CC(*)C1=O

B1: MUB40#1 (peptide)
peptide: Ac-C(Succinimide(1-Et,3-yl))TAEGIKKFEGDGYELFKDNFPAGEKFDNDDTNDQFYTVIF-NH2
modifications: not fully specified
notes: Unlabelled peptide as used in analytical gel filtration; trimer
For the protein B1, the binding result is “binds”.

B2: MUB40#4 (peptide)
peptide: Ac-C(Succinimide(1-Et,3-yl))VHVQYIDGETDQMLRQDDLDGYTDETIPYSTAEGIKKFEG-NH2
modifications: not fully specified
notes: Unlabelled peptide as used in analytical gel filtration; 'rather organized as tetramers'
Take B2: the binding result is on record as “binds”.

B3: MUB40#2 (peptide)
peptide: Ac-C(Succinimide(1-Et,3-yl))GYTDETIPYSTAEGIKKFEGDGYELFKDNFPAGEKFDNDD-NH2
modifications: not fully specified
notes: as for B2
For B3, the binding result is recorded as “binds”.

B4: MUB40#3 (peptide)
peptide: Ac-C(Succinimide(1-Et,3-yl))DQMLRQDDLDGYTDETIPYSTAEGIKKFEGDGYELFKDNF-NH2
modifications: not fully specified
notes: as for B2
Turning to B4, the binding result is recorded as “binds”.
